Our source for the percent of SU coprecipitated with Syk values is article PMC2213037.

The assay addresses Syk tyrosine kinase (mouse (endogenous in NMuMG)) (UniProt P48025). The experiment in a line: co-IP.

Chain of MMTV Env surface unit (SU, gp52) (P03374 99-688): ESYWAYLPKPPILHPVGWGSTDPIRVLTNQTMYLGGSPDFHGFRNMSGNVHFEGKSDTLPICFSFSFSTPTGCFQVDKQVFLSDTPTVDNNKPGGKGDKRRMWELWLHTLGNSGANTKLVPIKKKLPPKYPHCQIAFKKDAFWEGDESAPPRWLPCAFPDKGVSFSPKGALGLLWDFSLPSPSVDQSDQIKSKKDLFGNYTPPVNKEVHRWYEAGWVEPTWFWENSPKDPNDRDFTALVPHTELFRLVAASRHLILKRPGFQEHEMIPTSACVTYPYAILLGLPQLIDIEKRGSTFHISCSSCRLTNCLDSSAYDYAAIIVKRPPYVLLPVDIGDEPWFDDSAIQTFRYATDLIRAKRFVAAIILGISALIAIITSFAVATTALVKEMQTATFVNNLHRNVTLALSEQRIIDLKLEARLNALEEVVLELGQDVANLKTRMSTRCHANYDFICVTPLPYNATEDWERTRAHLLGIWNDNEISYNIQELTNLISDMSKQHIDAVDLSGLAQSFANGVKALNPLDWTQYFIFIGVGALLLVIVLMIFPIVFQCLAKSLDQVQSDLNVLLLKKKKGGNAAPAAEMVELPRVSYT
Chain of Syk tyrosine kinase (mouse (endogenous in NMuMG)) (P48025 whole entry): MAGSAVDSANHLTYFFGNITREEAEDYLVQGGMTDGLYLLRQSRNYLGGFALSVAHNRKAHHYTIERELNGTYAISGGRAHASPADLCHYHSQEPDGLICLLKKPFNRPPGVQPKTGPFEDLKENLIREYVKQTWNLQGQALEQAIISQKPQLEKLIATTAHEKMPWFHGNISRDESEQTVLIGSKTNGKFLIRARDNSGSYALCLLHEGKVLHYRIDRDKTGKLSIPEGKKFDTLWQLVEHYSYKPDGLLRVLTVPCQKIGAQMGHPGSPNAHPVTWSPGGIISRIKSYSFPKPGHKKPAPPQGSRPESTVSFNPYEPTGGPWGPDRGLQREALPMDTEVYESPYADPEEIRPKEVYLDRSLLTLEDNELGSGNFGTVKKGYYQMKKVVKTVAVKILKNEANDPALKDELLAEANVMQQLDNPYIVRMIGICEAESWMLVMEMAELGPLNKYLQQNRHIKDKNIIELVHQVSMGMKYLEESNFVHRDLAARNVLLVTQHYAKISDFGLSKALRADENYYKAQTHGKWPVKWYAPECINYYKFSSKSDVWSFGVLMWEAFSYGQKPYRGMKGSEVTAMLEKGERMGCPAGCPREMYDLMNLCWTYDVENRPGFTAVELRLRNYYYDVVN

The substance “MMTV Env surface unit (SU, gp52) (from UniProt P03374 99-454) (natural protein)” showed a percent of SU coprecipitated with Syk of less than 34%.
